Reference: the Immune Epitope Database (IEDB)

Experiments:
HLA-B*51:01 [1] = assay: IEDB peptide-MHC binding, purified MHC/competitive/radioactivity; filed as Kd, often an IC50 or EC50 that approximates it; ≥ and ≤ were set here for values at or beyond the usual limits of such assays
HLA-B*07:02 [2] = assay: as above
HLA-B*53:01 = assay: as above
HLA-B*35:01 [3] = assay: as above
HLA-B*54:01 = assay: as above
HLA-A*31:01 [4] = assay: as above
HLA-A*02:02 = assay: as above
HLA-A*02:03 = assay: as above
HLA-A*02:06 = assay: as above
HLA-A*03:01 [5] = assay: as above
HLA-A*33:01 = assay: as above
HLA-A*68:01 = assay: as above
HLA-A*11:01 [6] = assay: as above
HLA-A*02:01 [7] = assay: as above
HLA-A*68:02 = assay: as above
HLA-A*03:01 [8] = assay: IEDB peptide-MHC binding, purified MHC/direct/fluorescence; filed as Kd, often an IC50 or EC50 that approximates it; ≥ and ≤ were set here for values at or beyond the usual limits of such assays
HLA-A*11:01 [9] = assay: as above
HLA-A*31:01 [10] = assay: IEDB peptide-MHC binding, purified MHC/competitive/fluorescence; filed as Kd, often an IC50 or EC50 that approximates it; ≥ and ≤ were set here for values at or beyond the usual limits of such assays
HLA-B*44:02 = assay: IEDB peptide-MHC binding, purified MHC/competitive/radioactivity; filed as Kd, often an IC50 or EC50 that approximates it; ≥ and ≤ were set here for values at or beyond the usual limits of such assays; conditions: source organism: Hepatitis C virus (isolate H)
HLA-B*40:02 = assay: as above; conditions: source organism: Hepatitis C virus (isolate H)
HLA-A*01:01 [11] = assay: as above; conditions: source organism: Hepatitis C virus (isolate H)
HLA-B*40:01 = assay: as above; conditions: source organism: Hepatitis C virus (isolate H)
HLA-B*44:03 = assay: as above; conditions: source organism: Hepatitis C virus (isolate H)
HLA-B*18:01 = assay: as above; conditions: source organism: Hepatitis C virus (isolate H)
HLA-B*08:01 [12] = assay: as above; conditions: source organism: Hepatitis C virus (isolate H)
HLA-B*51:01 [13] = assay: IEDB peptide-MHC binding, purified MHC/competitive/fluorescence; filed as Kd, often an IC50 or EC50 that approximates it; ≥ and ≤ were set here for values at or beyond the usual limits of such assays
HLA-B*39:01 = assay: as above
HLA-B*35:01 [14] = assay: as above; conditions: source organism: Yersinia pestis Antiqua
HLA-B*08:01 [15] = assay: as above
HLA-A*01:01 [16] = assay: IEDB peptide-MHC binding, purified MHC/direct/fluorescence; filed as Kd, often an IC50 or EC50 that approximates it; ≥ and ≤ were set here for values at or beyond the usual limits of such assays; conditions: source organism: Mus musculus
HLA-B*27:03 = assay: IEDB peptide-MHC binding, purified MHC/competitive/fluorescence; filed as Kd, often an IC50 or EC50 that approximates it; ≥ and ≤ were set here for values at or beyond the usual limits of such assays; conditions: source organism: Homo sapiens
HLA-B*57:01 = assay: as above; conditions: source organism: Homo sapiens
HLA-B*15:42 = assay: as above
HLA-B*46:01 = assay: as above; conditions: source organism: Homo sapiens
HLA-A*69:01 = assay: as above; conditions: source organism: Homo sapiens
HLA-B*45:06 = assay: as above
HLA-B*83:01 = assay: as above
HLA-A*02:01 [17] = assay: as above; conditions: source organism: Homo sapiens
HLA-B*07:02 [18] = assay: IEDB peptide-MHC binding, purified MHC/direct/fluorescence; filed as Kd, often an IC50 or EC50 that approximates it; ≥ and ≤ were set here for values at or beyond the usual limits of such assays; conditions: source organism: SARS-CoV1
HLA-A*02:01 [19] = assay: as above; conditions: source organism: SARS-CoV1
[20] = source organism: Vaccinia virus WR
[21] = source organism: Hepatitis C virus (isolate H)
[22] = source organism: Yersinia pestis Antiqua
[23] = source organism: Triticum aestivum
[24] = source organism: Escherichia coli 536
[25] = source organism: Yersinia enterocolitica
[26] = source organism: SARS coronavirus Tor2
[27] = source organism: Mammarenavirus machupoense
[28] = source organism: Human herpesvirus 4 strain B95-8
[29] = source organism: Escherichia coli O157:H7
[30] = source organism: Escherichia coli

Sequence: LPRVVGGKTV
- Kd (HLA-B*51:01 [1]; [20]): 0.0326 µM
- Kd (HLA-B*07:02 [2]; [20]): 0.000306 µM
- Kd (HLA-B*53:01; [20]): 12.4 µM
- Kd (HLA-B*35:01 [3]; [20]): ≥ 28.8 µM
- Kd (HLA-B*54:01; [20]): 0.0391 µM

Sequence: TFMIITSTK
- Kd (HLA-A*31:01 [4]; [20]): 0.367 µM
- Kd (HLA-B*51:01 [1]; [20]): ≥ 77.5 µM
- Kd (HLA-A*02:02; [20]): ≥ 63.7 µM
- Kd (HLA-B*07:02 [2]; [20]): ≥ 77.5 µM
- Kd (HLA-A*02:03; [20]): ≥ 30.8 µM
- Kd (HLA-A*02:06; [20]): ≥ 77.1 µM
- Kd (HLA-A*03:01 [5]; [20]): 0.404 µM
- Kd (HLA-A*33:01; [20]): 0.619 µM
- Kd (HLA-A*68:01; [20]): 0.104 µM
- Kd (HLA-B*53:01; [20]): ≥ 78.2 µM
- Kd (HLA-B*35:01 [3]; [20]): 19.7 µM
- Kd (HLA-A*11:01 [6]; [20]): 0.189 µM
- Kd (HLA-B*54:01; [20]): ≥ 42.6 µM
- Kd (HLA-A*02:01 [7]; [20]): ≥ 78.1 µM
- Kd (HLA-A*68:02; [20]): ≥ 76.9 µM

Sequence: RAFKYPFIK
- Kd (HLA-A*03:01 [8]; source organism: Fowlpox virus): 0.0068 µM
- Kd (HLA-A*11:01 [9]; source organism: Fowlpox virus): 0.0017 µM
- Kd (HLA-A*31:01 [10]; source organism: Fowlpox virus): 0.06 µM

Sequence: HPALVFDITK
- Kd (HLA-B*44:02): ≥ 70.2 µM
- Kd (HLA-A*31:01 [4]; [21]): ≥ 70 µM
- Kd (HLA-B*51:01 [1]; [21]): ≥ 69.6 µM
- Kd (HLA-A*02:02; [21]): ≥ 47.2 µM
- Kd (HLA-B*07:02 [2]; [21]): 3.04 µM
- Kd (HLA-B*40:02): ≥ 70.8 µM
- Kd (HLA-A*02:03; [21]): 7.41 µM
- Kd (HLA-A*02:06; [21]): ≥ 69.8 µM
- Kd (HLA-A*03:01 [5]; [21]): 4.2 µM
- Kd (HLA-A*33:01; [21]): ≥ 38.4 µM
- Kd (HLA-A*68:01; [21]): 0.00232 µM
- Kd (HLA-A*01:01 [11]): 6.4 µM
- Kd (HLA-B*53:01; [21]): 0.478 µM
- Kd (HLA-B*40:01): ≥ 69.6 µM
- Kd (HLA-B*44:03): ≥ 63.3 µM
- Kd (HLA-B*18:01): ≥ 28.2 µM
- Kd (HLA-B*35:01 [3]; [21]): 0.433 µM
- Kd (HLA-A*11:01 [6]; [21]): 0.862 µM
- Kd (HLA-B*54:01; [21]): 0.13 µM
- Kd (HLA-A*02:01 [7]; [21]): ≥ 69.4 µM
- Kd (HLA-A*68:02; [21]): ≥ 69.8 µM
- Kd (HLA-B*08:01 [12]): ≥ 52.1 µM

Sequence: MPARLWLCL
- Kd (HLA-B*51:01 [13]; [22]): ≥ 20 µM
- Kd (HLA-B*39:01; [22]): 0.108 µM
- Kd (HLA-B*35:01 [14]): 0.0008 µM
- Kd (HLA-B*08:01 [15]; [22]): 0.383 µM

Sequence: QPQYSQPQQPI
- Kd (HLA-B*51:01 [1]; [23]): 11.4 µM
- Kd (HLA-B*07:02 [2]; [23]): ≥ 64 µM
- Kd (HLA-B*53:01; [23]): ≥ 63.7 µM
- Kd (HLA-B*35:01 [3]; [23]): ≥ 63.7 µM
- Kd (HLA-B*54:01; [23]): ≥ 63.7 µM

Sequence: RPTPKKMNIV
- Kd (HLA-B*51:01 [1]; [20]): ≥ 69.6 µM
- Kd (HLA-B*07:02 [2]; [20]): 0.0524 µM
- Kd (HLA-B*53:01; [20]): ≥ 69.9 µM
- Kd (HLA-B*35:01 [3]; [20]): ≥ 48.8 µM
- Kd (HLA-B*54:01; [20]): 5.86 µM

Sequence: FGGVPREVL
- Kd (HLA-B*39:01; [24]): ≥ 20 µM
- Kd (HLA-B*08:01 [15]; [24]): ≥ 20 µM

Sequence: TVWNRLIAR
- Kd (HLA-A*03:01 [8]; [25]): 0.0393 µM
- Kd (HLA-A*11:01 [9]; [25]): 0.0326 µM
- Kd (HLA-A*31:01 [10]; [22]): ≤ 0.001 µM

Sequence: KVFSFWLLCK
- Kd (HLA-A*31:01 [4]; [20]): 0.00925 µM
- Kd (HLA-B*51:01 [1]; [20]): 17 µM
- Kd (HLA-A*02:02; [20]): 4.25 µM
- Kd (HLA-B*07:02 [2]; [20]): ≥ 44.9 µM
- Kd (HLA-A*02:03; [20]): 3.36 µM
- Kd (HLA-A*02:06; [20]): 8.66 µM
- Kd (HLA-A*03:01 [5]; [20]): 0.0063 µM
- Kd (HLA-A*33:01; [20]): 0.863 µM
- Kd (HLA-A*68:01; [20]): 0.0428 µM
- Kd (HLA-B*53:01; [20]): 2.34 µM
- Kd (HLA-B*35:01 [3]; [20]): ≥ 47.4 µM
- Kd (HLA-A*11:01 [6]; [20]): 0.00327 µM
- Kd (HLA-B*54:01; [20]): 2.55 µM
- Kd (HLA-A*02:01 [7]; [20]): 1.19 µM
- Kd (HLA-A*68:02; [20]): ≥ 49.4 µM

Sequence: SVDSDHLGY
- Kd (HLA-A*01:01 [16]): 0.0007 µM
- Kd (HLA-B*27:03): ≥ 20 µM
- Kd (HLA-B*51:01 [13]; source organism: Homo sapiens): ≥ 20 µM
- Kd (HLA-B*57:01): ≥ 20 µM
- Kd (HLA-B*15:42; source organism: Homo sapiens): ≥ 5 µM
- Kd (HLA-B*46:01): ≥ 20 µM
- Kd (HLA-B*39:01; source organism: Homo sapiens): ≥ 20 µM
- Kd (HLA-A*69:01): ≥ 20 µM
- Kd (HLA-B*45:06; source organism: Homo sapiens): ≥ 5 µM
- Kd (HLA-B*83:01; source organism: Homo sapiens): ≥ 5 µM
- Kd (HLA-A*02:01 [17]): ≥ 20 µM

Sequence: TPRDLGACI
- Kd (HLA-B*51:01 [1]; [26]): 3.89 µM
- Kd (HLA-B*53:01; [26]): ≥ 42 µM
- Kd (HLA-B*35:01 [3]; [26]): 12.9 µM
- Kd (HLA-B*54:01; [26]): 3.88 µM
- Kd (HLA-B*07:02 [18]): 0.188 µM
- Kd (HLA-A*11:01 [9]; source organism: SARS-CoV1): 9.73 µM
- Kd (HLA-A*02:01 [19]): ≥ 36 µM

Sequence: TPNQPSAEF
- Kd (HLA-B*51:01 [1]; [27]): 13 µM
- Kd (HLA-B*07:02 [2]; [27]): 0.076 µM
- Kd (HLA-B*53:01; [27]): 0.565 µM
- Kd (HLA-B*35:01 [3]; [27]): 0.0403 µM
- Kd (HLA-B*54:01; [27]): 18.7 µM

Sequence: DEVEFLGHY
- Kd (HLA-B*15:42; [28]): ≥ 5 µM
- Kd (HLA-B*45:06; [28]): ≥ 5 µM
- Kd (HLA-B*83:01; [28]): ≥ 5 µM

Sequence: GMLVGRLGK
- Kd (HLA-A*03:01 [8]; [29]): 0.0293 µM
- Kd (HLA-A*11:01 [9]; [29]): 0.191 µM
- Kd (HLA-A*31:01 [10]; source organism: Escherichia coli O157:H7 str. Sakai): 0.0137 µM

Sequence: ENALRGVAV
- Kd (HLA-B*08:01 [15]; [30]): 0.377 µM

Sequence: KLAETRMGY
- Kd (HLA-A*03:01 [8]; [29]): 0.0711 µM
- Kd (HLA-A*11:01 [9]; [29]): 0.931 µM
- Kd (HLA-A*31:01 [10]; [30]): 0.153 µM
